Laboratory results: patent US20220017620A1 (SHANGHAI FUDAN ZHANGJIANG BIO PHARMACEUTICAL, published 2022)
Values belong to the binder of their own block, whether it stands above or below them.

Columns and labels:
[1] = molecular target: T1, B7-H3 antigen H4M (human 4Ig B7-H3 amino acids 27-461 with N-terminal 10 His tag and C-terminal Myc tag) (human, UniProt Q5ZPR3 27-461, Biotinylated in the phage ELISA (labeling amount approximately 2.5, sites not stated); not biotinylated in the scFv protein ELISA); experiment: phage ELISA, scFv displayed on phage, biotinylated H4M captured on streptavidin
T1 construct: Expressed in Expi293; also called biotinylated B7-H3 antigen H4M; not shown: any linker between the tags and the B7-H3 part is not described
T1 sequence: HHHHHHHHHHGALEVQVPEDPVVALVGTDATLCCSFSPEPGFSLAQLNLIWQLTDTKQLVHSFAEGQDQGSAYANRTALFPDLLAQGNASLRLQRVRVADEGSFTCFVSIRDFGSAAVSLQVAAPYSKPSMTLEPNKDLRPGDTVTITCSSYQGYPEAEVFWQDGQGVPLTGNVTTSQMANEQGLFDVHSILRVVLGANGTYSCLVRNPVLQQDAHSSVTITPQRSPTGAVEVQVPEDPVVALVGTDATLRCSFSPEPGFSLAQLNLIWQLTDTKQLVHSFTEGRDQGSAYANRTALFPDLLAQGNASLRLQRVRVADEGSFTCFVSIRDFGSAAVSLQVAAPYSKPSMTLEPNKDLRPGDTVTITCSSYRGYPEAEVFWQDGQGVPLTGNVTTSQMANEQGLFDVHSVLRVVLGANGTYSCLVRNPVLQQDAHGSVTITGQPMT
Protocol: Phage ELISA screening: streptavidin with a concentration of 1 mg/ml was taken and dissolved at room temperature, after being mixed, it was diluted gradually with coating buffer to 5 μg/ml. 100 μL/well of which was then pipetted into each well in a 96-well plate, and 100 μL coating buffer only were pipetted into another 3 wells as a blank control, incubated overnight at 2-8° C. The biotinylated B7-H3 antigen H4M was taken and diluted with 0.5% BSA-PBST diluent to […], then 100 μL of which at a concentration of 20 ng/ml was pipetted into the streptavidin-coated wells, and placed into a microplate shaker. After shaking at 37° C. and 600 rpm for 1 hour, the liquid was discarded, the plate was washed for 3 times with washing buffer and pat dry. The positive phage obtained in the second or third round of panning was taken and dissolved at room temperature, after being mixed, it was diluted 500 times with the diluent. The diluted phage was aliquoted into the microtiter plate at an amount of 100 μL/well, and placed in a microplate shaker, incubating at 37° C. and 600 rpm for 1 hour. After discarding the liquid, the plate was washed for 3 times with washing buffer. Then 100 μL of diluted HRP/Anti-M137 enzyme-linked antibody was aliquoted into each well, placed into the microplate shaker, incubating at 37° C., 600 rpm for 1 hour. After discarding the liquid, the plate was washed for 3 times. Then TMB chromogenic solution was aliquoted in at 100 μL/well and incubated for color development for 15 minutes, then 1 mol/L H₂SO₄ stop solution was aliquoted at 100 μl/well to stop the reaction. A microplate reader was used to measure the absorbance at 450 nm with a wavelength of 650 nm as the reference wavelength.

[2] = molecular target: T1, B7-H3 antigen H4M (human 4Ig B7-H3 …); experiment: scFv protein ELISA on coated H4M
Protocol: ELISA screening of scFv protein: B7-H3 antigen H4M was taken and dissolved at room temperature, then diluted with coating buffer to 2 ng/ml, and aliquoted into a hydrophobic enzyme-labeled plate at 100 μL/well, while 100 μL coating buffer only were pipetted into another 3 wells as a blank control, incubated overnight at 2-8° C. 100 μL of scfv protein sample was pipetted into each well, then the plate was placed into the microplate shaker, incubating for 1 hour at 37° C. and 600 rpm. After discarding the liquid, the plate was washed for 3 times with washing buffer. Then diluted enzyme-linked antibody was aliquoted into each well at 100 μL/well, placed into the microplate shaker, incubating at 37° C., 600 rpm for 1 hour. After discarding the liquid, the plate was washed for 3 times. Then TMB chromogenic solution was aliquoted in at 100 μL/well and incubated for 15 minutes, then 1 mol/L H₂SO₄ stop solution was aliquoted at 100 μL/well to stop the reaction. A microplate reader was used to measure the absorbance at 450 nm with a wavelength of 650 nm as the reference wavelength.

IgV domain of B7-H3 = molecular target: T2, IgV domain of B7-H3 (human, UniProt Q5ZPR3 30-130); experiment: ELISA on coated antigen, IgG1 antibody
T2 sequence: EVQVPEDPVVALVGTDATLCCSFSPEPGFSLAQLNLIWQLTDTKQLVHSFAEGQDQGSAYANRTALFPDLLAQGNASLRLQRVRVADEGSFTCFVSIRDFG
Protocol: Protein binding: 100 μL of antigen B7-H3 (R&D) at 20 ng/ml was coated onto microplate, incubated at 2-8° C. overnight. Subsequently, 100 μL of the prepared full-length IgG1 antibody described above was added with a total of 8 concentrations started from 2000 ng/ml and serially diluted with 3-fold, incubating at 37° C., 600 rpm for 1 hour. After the plate was washed for three times, Goat anti human IgG (Fc)-HRP enzyme-linked antibody was added and the plate was shook at 37° C. and 600 rpm for 1 hour. After the plate was washed for 4 times, TMB chromogenic solution was aliquoted in and incubated for 10 minutes, then 1 mol/L […] stop solution at 100 μL/well was aliquoted to stop the reaction and the absorbance was measured.

B1: P3B9 scFv (scFv)
scFv: QIQLVQSGAEVKKPGESLKISCKGSGYSFTSYWIGWVRQMPGKGLEWMGIIYPGDSDTRYSPSFQGQVTISADKSISTAYLQWSSLKASDTAMYYCARRTPRGMDVWGQGTTVTVSSGSASAPTLGQGGGGGSGGGGSGGGGSQAVLTQPPSASGTPGQRVTISCSGSSSNIGSNYVYWYQQLPGTAPKLLIYRNNQRPSGVPDRFSGSKSGTSASLAISGLRSEDEADYYCAAWDDSLSGWVFGGGTKLTVL
ELISA signal value of Phage scFv [1]: 3.09 absorbance 450 nm
ELISA signal value of protein scFv [2]: 3.39 absorbance 450 nm

B2: P9A12 full-length IgG1 antibody (antibody, V domains shown)
VH: QVTLKESGGGLVQPGGSLRLSCAASGFTFSSYAMSWVRQAPGKGLEWVSAISGSGGSTYYADSVKGRFTISRDNSKNTLYLQMNSLRAEDTAVYYCARGAGIDAFDIWGQGTMVTVSS
VL: QSALTQPASVSGSPGQSITISCTGTSSDVGAYNYVTWYQQYPGKAPKLMIYDVSERPSGVSNRFSGSKSGNTASLTISGLQAEDEADYYCSSFTSSISWVFGGGTKLTVL
ELISA signal value (IgV domain of B7-H3): 0.3 to 0.5 elisasignalvalue

B4: P2E5 scFv (scFv)
scFv: QVTLKESGGGLVQPGGSLRLSCAASGFTFSNSYMTWVRQAPGMGLEWVASMKPDGSVKHYVDSVKGRFTISRDNTKNSLDLQMNSLRAEDTAVYYCSSYDTRWGWFDPWGEGTLVTVSSGSASAPTLGQGGGGGSGGGGSGGGGSQTVVTQEPSFSVSPGGTVTLTCGLNSGSVSTSYFPSWYQQTPGQAPRTLIYNTNTRSSGVPDRFSGSILGNKAALTITGAQADDESDYYCLLYMDSGPHWVFGGGTKLTVL
ELISA signal value of Phage scFv [1]: 0.74 absorbance 450 nm
ELISA signal value of protein scFv [2]: 0.84 absorbance 450 nm

B6: P1G2 scFv (scFv)
scFv: QVQLQQSGAEVKKPGSSVKVSCKASGGTFSSYAISWVRQAPGQGLEWMGRIIPILGIANYAQKFQGRVTITADKSTSTAYMELSSLRSEDTAVYYCAVNYYDSSGYYSDYWGQGTLVTVSSGSASAPTLGQGGGGGSGGGGSGGGGSSYELTQPPSASGSPGQSVTISCTGTSSDVGGYNYVSWYQQHPGKAPRLMIYGVSQRPSGVPDRFSGSKSGNTASLTVSGLQAEDEADYYCSSYANNNYVFGTGTKVTVL
ELISA signal value of Phage scFv [1]: 3.55 absorbance 450 nm
ELISA signal value of protein scFv [2]: 0.54 absorbance 450 nm

Other lines, results leading:

ELISA signal value of Phage scFv [1]: 3.65 absorbance 450 nm
ELISA signal value of protein scFv [2]: 2.97 absorbance 450 nm
B3: P1D1 scFv (scFv)
scFv: QVQLVQSGAEVKKPGESLKISCKGSGYSFTSYWIGWVRQMPGKGLEWMGIIYPGDSDTRYSPSFQGQVTISADKSISTAYLQWSSLKASDTAMYYCARRSVAGLDYWGQGTLVTVSSGSASAPTLGQGGGGGSGGGGSGGGGSKTVVTQPPSASGTPGQRVTISCSGSSSNIGSKYVYWYQQLPGTAPRLLIYRNNQRPSGVPDRFSGSKSGTSASLAISGLRSEDESDYYCASWDDRLKGYAFGTGTKVTVL

ELISA signal value of Phage scFv [1]: 3.54 absorbance 450 nm
ELISA signal value of protein scFv [2]: 3.58 absorbance 450 nm
B5: P2E3 scFv (scFv)
scFv: QVQLVQSGAEVKKPGESLKISCKGSGYSFTSYWIGWVRQMPGKGLEWMGIIYPGDSDTRYSPSFQGQVTISADKSISTAYLQWSSLKASDTAMYYCARRSREGFDPWGQGTLVTVSSGSASAPTLGQGGGGGSGGGGSGGGGSQAVLTQPSSASGTPGQRVTMSCSGAASNIGKNFVYWYQQLPGRAPRLLISRNIQRPSEVPDRFSGSKSGTSASLAISGLQSEDEADYYCAAWDDSLNGFVFGTGTAVTVL

ELISA signal value (IgV domain of B7-H3): 0.6 to 1.5 elisasignalvalue
B7: P7F10 full-length IgG1 antibody (antibody, V domains shown)
VH: QVQLQQSGGGLVQPGGSLRLSCAASGFTFSSYPMSWVRQAPGKGLEWVSVISGSGGSTFYADSVKGRFTISRDNSKNTLYLQVNSLRAEDTAVYYCAKDGRTLSGMDVWGQGTTVTVSS
VL: QPVLTQPPSASGTPGQRVTISCSGSSSNIGSNPVNWYQQLPGTAPKLLIYNNNQRPSGVPDRFSGSKSGTSGSLAISGLQSEDEAHYYCAAWDVSLKEVFGGGTKVTVL
